Data published in PMC4032492, “Molecular mechanism of Aurora A kinase autophosphorylation and its allosteric activation by TPX2” (eLife, 2014).
Blank lines part the entries; values can stand above or below the molecule they belong to.

What was measured:
[1] = target: dephosphorylated Aurora A kinase 122-403 (human) (UniProt O14965); experiment: AUC + other: SAXS; estimate from the concentration dependence of the dimer in AUC and SAXS; dimer to monomers
[2] = target: dephosphorylated Aurora A kinase 122-403 (human) (UniProt O14965); experiment: AUC; sedimentation velocity, 50,000 rpm, 18°C; 100-160 μM Aurora A + 500 μM AMPPCP, with or without 100 μM TPX2 1-25, kinase assay buffer; dimer to monomers
[3] = target: dephosphorylated Aurora A kinase 122-403 (human) (UniProt O14965); experiment: SAXS; Aurora A 0.33-6.6 mg/ml with 1 mg/mL TPX2 1-25, 500 μM AMPPCP, kinase assay buffer, 20°C; curves fitted with monomer and dimer of the X-ray structures
Aurora A^122−403 T288V = target: T1, Aurora A^122−403 T288V (human, UniProt O14965 122-403, T288V); experiment: cell-based or functional assay
T1 sequence (looked up): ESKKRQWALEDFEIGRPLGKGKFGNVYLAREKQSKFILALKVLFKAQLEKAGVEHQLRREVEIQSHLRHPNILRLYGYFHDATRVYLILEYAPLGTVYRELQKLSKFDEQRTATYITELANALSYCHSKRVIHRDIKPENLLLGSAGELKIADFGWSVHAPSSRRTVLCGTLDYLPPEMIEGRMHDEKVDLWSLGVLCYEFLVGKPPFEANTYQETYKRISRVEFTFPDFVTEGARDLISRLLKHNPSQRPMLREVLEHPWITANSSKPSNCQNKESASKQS

[4] = target: T2, phosphorylated Aurora A kinase 122-403 (human, UniProt O14965 122-403, heavily phosphorylated (multiple sites, by autophosphorylation and E. coli kinases during expression); T288 in the activation loop phosphorylated); experiment: ITC; phosphorylated Aurora A
T2 chain: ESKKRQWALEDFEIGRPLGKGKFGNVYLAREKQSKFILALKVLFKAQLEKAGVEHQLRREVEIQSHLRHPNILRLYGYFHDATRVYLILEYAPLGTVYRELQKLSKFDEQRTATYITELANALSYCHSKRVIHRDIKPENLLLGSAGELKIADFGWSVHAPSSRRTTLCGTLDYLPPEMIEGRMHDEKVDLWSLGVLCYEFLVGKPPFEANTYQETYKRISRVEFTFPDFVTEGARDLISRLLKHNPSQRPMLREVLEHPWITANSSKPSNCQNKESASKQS

[5] = target: T3, dephosphorylated Aurora A kinase 122-403 (human, UniProt O14965 122-403); experiment: ITC; Nano ITC, 1 μl injections every 180 s, 25°C; 20 mM TrisHCl, 200 mM NaCl, 3% glycerol, 1 mM TCEP, pH 7.50; independent fit model; Aurora A 13-90 μM, TPX2 250-940 μM; conditions: both partners purified
T3 construct: Aurora A kinase, human, residues 122-403, codon-optimized, completely dephosphorylated (confirmed by MS); Monomer and dimer are both seen in solution; also called deP Aurora A; deP Aurora A^122−403
T3 sequence (looked up): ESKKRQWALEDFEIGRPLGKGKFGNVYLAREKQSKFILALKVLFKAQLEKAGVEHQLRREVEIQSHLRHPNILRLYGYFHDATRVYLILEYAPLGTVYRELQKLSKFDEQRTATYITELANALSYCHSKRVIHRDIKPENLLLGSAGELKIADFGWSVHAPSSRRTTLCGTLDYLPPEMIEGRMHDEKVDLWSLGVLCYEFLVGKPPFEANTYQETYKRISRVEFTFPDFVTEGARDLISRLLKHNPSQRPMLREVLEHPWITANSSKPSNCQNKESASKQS

[6] = target: T4, dephosphorylated Aurora A kinase 122-403 (human, UniProt O14965 122-403); experiment: ITC
T4 chain: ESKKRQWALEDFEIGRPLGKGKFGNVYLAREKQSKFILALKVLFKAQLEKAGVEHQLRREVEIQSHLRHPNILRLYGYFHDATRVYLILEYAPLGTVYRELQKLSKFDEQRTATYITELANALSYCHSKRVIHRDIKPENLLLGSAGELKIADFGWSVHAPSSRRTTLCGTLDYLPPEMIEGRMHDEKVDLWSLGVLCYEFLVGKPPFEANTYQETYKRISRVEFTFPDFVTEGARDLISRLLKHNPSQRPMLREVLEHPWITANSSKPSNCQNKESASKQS

[7] = target: the molecule itself; experiment: AUC; sedimentation velocity, 50,000 rpm, 18°C; 100-160 μM Aurora A + 500 μM AMPPCP, with or without 100 μM TPX2 1-25, kinase assay buffer; dimer to monomers

Kd [1]: > 300000 nM
stoichiometry N [2]: 2
percent dimer [3]: 9%
Molecule: dephosphorylated Aurora A kinase 122-403 (from UniProt O14965 122-403) (domain or fragment)

KA from the dose-dependence of TPX2 1-147 on AP phosphorylation kinetics by 1 μM Aurora A T288V (Aurora A^122−403 T288V): 1 µM
Kd [4]: 2900 nM
Kd [5]: 1100 ± 100 nM
B1: TPX2^1−147 (Targeting Protein for Xklp2, residues 1-147) (domain or fragment, UniProt Q9ULW0 1-147, looked up)
chain: MSQVKSSYSYDAPSDFINFSSLDDEGDTQNIDSWFEEKANLENKLLGKNGTGGLFQGKTPLRKANLQQAIVTPLKPVDNTYYKEAEKENLVEQSIPSNACSSLEVEAAISRKTPAQPQRRSLRLSAQKDLEQKEKHHVKMKAKRCAT
notes: TPX2 (Targeting Protein for Xklp2), residues 1-147; also called longer TPX2 variant

Kd [6]: 5000 nM
Kd [4]: 2000 nM
Molecule: MSQVKSSYSYDAPSDFINFSSLDDEGDTQNIDSWFEEKANLENKL [TPX2^1−45]

B2: Aurora A^125−392 D274A (domain or fragment, human, UniProt O14965 125-392, looked up)
chain: KRQWALEDFEIGRPLGKGKFGNVYLAREKQSKFILALKVLFKAQLEKAGVEHQLRREVEIQSHLRHPNILRLYGYFHDATRVYLILEYAPLGTVYRELQKLSKFDEQRTATYITELANALSYCHSKRVIHRDIKPENLLLGSAGELKIAAFGWSVHAPSSRRTTLCGTLDYLPPEMIEGRMHDEKVDLWSLGVLCYEFLVGKPPFEANTYQETYKRISRVEFTFPDFVTEGARDLISRLLKHNPSQRPMLREVLEHPWITANSSKPSN
notes: Aurora A kinase, human, residues 125-392, D274A; The purification of this mutant is not described on its own; also called kinase-dead Aurora A D274A; catalytically impaired D274A mutant; source: E. coli, purified (short 125-392 construct in pET28a)
stoichiometry N [7]: 2

Kd [6]: 2000 nM
Kd [4]: 1800 nM
Molecule: MSQVKSSYSYDAPSDFINFSSLDDE [TPX2^1−25]
